In US20220251236A1 (Boehringer Ingelheim, published 2022):

T1: EGF5+6
T1 construct: also called Hu DLL3 EGF5+6 on HEK293 cells
T1 membrane-anchored DLL3 subdomain construct: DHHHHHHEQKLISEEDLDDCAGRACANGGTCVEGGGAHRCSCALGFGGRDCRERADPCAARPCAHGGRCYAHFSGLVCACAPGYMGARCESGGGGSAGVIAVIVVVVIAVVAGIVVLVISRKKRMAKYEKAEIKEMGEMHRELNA

T2: EGF4+5
T2 construct: also called Hu DLL3 EGF4+5 on HEK293 cells
T2 membrane-anchored DLL3 subdomain construct: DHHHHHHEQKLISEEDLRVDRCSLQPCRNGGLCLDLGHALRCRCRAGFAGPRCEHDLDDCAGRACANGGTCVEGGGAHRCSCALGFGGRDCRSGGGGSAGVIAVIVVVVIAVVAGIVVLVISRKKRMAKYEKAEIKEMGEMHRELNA

T3: EGF6+MEMBRANE PROXIMAL PEPTIDE
T3 construct: also called Hu DLL3 EGF6+membrane proximal peptide on HEK293 cells
T3 membrane-anchored DLL3 subdomain construct: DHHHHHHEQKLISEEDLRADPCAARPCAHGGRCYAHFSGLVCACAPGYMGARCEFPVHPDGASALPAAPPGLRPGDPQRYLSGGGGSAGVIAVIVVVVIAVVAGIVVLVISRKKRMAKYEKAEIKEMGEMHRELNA

T4: EGF3+4
T4 construct: also called Hu DLL3 EGF3+4 on HEK293 cells
T4 membrane-anchored DLL3 subdomain construct: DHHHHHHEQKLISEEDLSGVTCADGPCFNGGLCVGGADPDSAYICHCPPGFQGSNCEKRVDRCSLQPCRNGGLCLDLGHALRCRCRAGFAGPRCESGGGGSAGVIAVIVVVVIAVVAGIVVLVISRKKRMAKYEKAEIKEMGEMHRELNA

T5: EGF2+3
T5 construct: also called Hu DLL3 EGF2+3 on HEK293 cells
T5 membrane-anchored DLL3 subdomain construct: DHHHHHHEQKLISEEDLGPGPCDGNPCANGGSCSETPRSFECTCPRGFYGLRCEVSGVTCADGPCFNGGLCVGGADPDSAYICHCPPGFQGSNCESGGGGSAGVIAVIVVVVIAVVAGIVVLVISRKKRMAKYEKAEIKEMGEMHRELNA

T6: Human DLL3-His (human, UniProt Q9NYJ7 27-492)
T6 construct: also called huDLL3-His; hu DLL3
T6 sequence: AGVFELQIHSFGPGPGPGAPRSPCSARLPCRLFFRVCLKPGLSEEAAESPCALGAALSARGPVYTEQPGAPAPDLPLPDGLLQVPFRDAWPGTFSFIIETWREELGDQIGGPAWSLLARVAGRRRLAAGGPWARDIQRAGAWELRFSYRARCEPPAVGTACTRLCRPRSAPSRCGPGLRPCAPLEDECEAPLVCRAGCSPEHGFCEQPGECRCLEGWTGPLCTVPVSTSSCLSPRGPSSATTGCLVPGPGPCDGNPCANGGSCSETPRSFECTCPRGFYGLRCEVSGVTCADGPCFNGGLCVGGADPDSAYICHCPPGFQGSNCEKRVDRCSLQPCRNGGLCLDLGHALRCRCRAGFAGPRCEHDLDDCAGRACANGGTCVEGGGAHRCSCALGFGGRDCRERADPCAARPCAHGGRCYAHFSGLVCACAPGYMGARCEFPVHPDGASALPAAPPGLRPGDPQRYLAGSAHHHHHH

T7: EGF1+2
T7 construct: also called Hu DLL3 EGF1+2 on HEK293 cells
T7 membrane-anchored DLL3 subdomain construct: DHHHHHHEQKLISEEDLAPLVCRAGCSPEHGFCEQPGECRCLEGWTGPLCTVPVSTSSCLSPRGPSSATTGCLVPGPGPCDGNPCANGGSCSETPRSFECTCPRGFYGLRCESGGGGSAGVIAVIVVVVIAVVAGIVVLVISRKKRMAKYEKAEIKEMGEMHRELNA

B1: DLL3#11/CD3#1 (bispecific antibody, human IgG1, kappa, lambda, L234A L235A)
chain 1: QIVLTQSPAIMSASPGEKVTITCSASSSVTYIHWFQQNPGTSPKLWIYRTSYLASGVPARFSGSGSGTSYSLTISRMEAEDAATYYCQQRSSYPRTFGGGTKLEIKRTVAAPSVFIFPPSDEQLKSGTASVVCLLNNFYPREAKVQWKVDNALQSGNSQESVTEQDSKDSTYSLSSTLTLSKADYEKHKVYACEVTHQGLSSPVTKSFNRGECGGGGSEGKSSGSGSESKSTEGKSSGSGSESKSTGGGGSQVQLQQPGAELVQPGSSVKMSCKASGYAFSDYWITWVKQRPGQGLEWIGDIYPGSGSTKSSEKFKNKATLTADTSSSKAYIQFSSLTPEDSAVYYCVSLYYYGSHYLDTWGQGTTLTVSSASTKGPSVFPLAPSSKSTSGGTAALGCLVKDYFPEPVTVSWNSGALTSGVHTFPAVLQSSGLYSLSSVVTVPSSSLGTQTYICNVNHKPSNTKVDKRVEPKSCDKTHTCPPCPAPEAAGGPSVFLFPPKPKDTLMISRTPEVTCVVVDVSHEDPEVKFNWYVDGVEVHNAKTKPREEQYNSTYRVVSVLTVLHQDWLNGKEYKCKVSNKALPAPIEKTISKAKGQPREPQVYTLPPSREEMTKNQVSLWCLVKGFYPSDIAVEWESNGQPENNYKTTPPVLDSDGSFFLYSKLTVDKSRWQQGNVFSCSVMHEALHNHYTQKSLSLSPG
chain 2: EAVVTQEPSLTVSPGGTVTLTCRSSTGAVTTSNYANWVQEKPGQLPRGLIGGTNKRAPWVPARFSGSLLGGKAALTLSGAQPEDEAEYFCALWYSNLWVFGGGTKLTVLGQPKAAPSVTLFPPSSEELQANKATLVCLISDFYPGAVKVAWKADGSPVNTGVETTTPSKQSNNKYAASSYLSLTPEQWKSHRSYSCQVTHEGSTVEKTVAPAECSGGGGSEGKSSGSGSESKSTEGKSSGSGSESKSTGGGGSEVQLVESGGGLVQPGGSLKLSCAASGFTFNTYAMNWVRQAPGKGLEWVARIRSKYNNYATYYADSVKDRFTISRDDSKNTAYLQMNNLKTEDTAVYYCVRHGNFGNSYVSWFAYWGQGTLVTVSAASTKGPSVFPLAPSSKSTSGGTAALGCLVKDYFPEPVTVSWNSGALTSGVHTFPAVLQSSGLYSLSSVVTVPSSSLGTQTYICNVNHKPSNTKVDKRVEPKSCDKTHTCPPCPAPEAAGGPSVFLFPPKPKDTLMISRTPEVTCVVVDVSHEDPEVKFNWYVDGVEVHNAKTKPREEQYNSTYRVVSVLTVLHQDWLNGKEYKCKVSNKALPAPIEKTISKAKGQPREPQVYTLPPSREEMTKNQVSLSCAVKGFYPSDIAVEWESNGQPENNYKTTPPVLDSDGSFFLVSKLTVDKSRWQQGNVFSCSVMHEALHNRFTQKSLSLSPG
notes: Heterodimer of one DLL3 chain and one CD3 chain (scFab-Fc, knob-in-hole)
B2: DLL3#14/CD3#1 (bispecific antibody, human IgG1, kappa, lambda, L234A L235A)
chain 1: not shown
chain 2: EAVVTQEPSLTVSPGGTVTLTCRSSTGAVTTSNYANWVQEKPGQLPRGLIGGTNKRAPWVPARFSGSLLGGKAALTLSGAQPEDEAEYFCALWYSNLWVFGGGTKLTVLGQPKAAPSVTLFPPSSEELQANKATLVCLISDFYPGAVKVAWKADGSPVNTGVETTTPSKQSNNKYAASSYLSLTPEQWKSHRSYSCQVTHEGSTVEKTVAPAECSGGGGSEGKSSGSGSESKSTEGKSSGSGSESKSTGGGGSEVQLVESGGGLVQPGGSLKLSCAASGFTFNTYAMNWVRQAPGKGLEWVARIRSKYNNYATYYADSVKDRFTISRDDSKNTAYLQMNNLKTEDTAVYYCVRHGNFGNSYVSWFAYWGQGTLVTVSAASTKGPSVFPLAPSSKSTSGGTAALGCLVKDYFPEPVTVSWNSGALTSGVHTFPAVLQSSGLYSLSSVVTVPSSSLGTQTYICNVNHKPSNTKVDKRVEPKSCDKTHTCPPCPAPEAAGGPSVFLFPPKPKDTLMISRTPEVTCVVVDVSHEDPEVKFNWYVDGVEVHNAKTKPREEQYNSTYRVVSVLTVLHQDWLNGKEYKCKVSNKALPAPIEKTISKAKGQPREPQVYTLPPSREEMTKNQVSLSCAVKGFYPSDIAVEWESNGQPENNYKTTPPVLDSDGSFFLVSKLTVDKSRWQQGNVFSCSVMHEALHNRFTQKSLSLSPG
notes: as for B1

Experiments:
[1] = target: T8, Human CD3 E+G HuFc-6xHis (human); assay: SPR (ProteOn XPR36), HuCD3E_HuCD3G-Fc amine-coupled, bispecific as analyte, Example 4B
T8 construct: also called hu CD3εγ-Fc
Method: (§1) The binding affinity of purified DLL3/CD3 bispecific constructs for recombinant human DLL3-ECD and Fc-fusion protein of human CD3 εγ subunits was determined by Surface Plasmon Resonance (SPR), using a ProteOn XPR36 instrument (Bio-Rad).
For binding kinetic determination to CD3, HuCD3E_HuCD3G-Fc (dissolved in pH 4.5 acetate) was immobilized directly onto the sensor surface through amine coupling for 360 sec at a flowrate of 30 μl/min vertically. The baseline was stabilized by injecting PBS-T-EDTA for 60 sec at a flowrate of 30 μl/min horizontally. The analytes (all anti-DLL3/CD3 molecules) were injected horizontally over the captured antibody for 600 sec at a flowrate of 30 μl/min and a dissociation for 1800 sec.

[2] = target: T9, trypsin inhibitor from glycine max soybean (Glycine max (soybean)); assay: SPR (Biacore T200), trypsin inhibitor on CM5 chip, sample at 1 µM
T9 construct: also called Tryp
Text: To prepare the surface for the non-specific binding experiment, chicken egg white lysozyme and trypsin inhibitor from glycine max soybean were coupled manually to a series S CM5 chip with the surface density of 3000-5000 RU using the amine coupling kit according to the manufacture instructions.

[3] = target: T1, EGF5+6; assay: flow cytometry on HEK293 cells expressing the DLL3 subdomain construct, PE anti-human secondary, control: secondary antibody only
Method: (§2) DLL3/CD3 binding proteins were produced by transient transfection of CHO-E cells with the pTT5 vectors carrying the chain-encoding genes, as described in Example 2. […] Bound molecules were detected with PE-conjugated anti-human secondary antibody (Sigma-Aldrich, #P8047). As negative control, cells were incubated with secondary antibody only.
(§3) The samples were measured by flow-cytometry. […] The sequences of the epitope domains are listed in Example 5, Table 3.

[4] = target: T2, EGF4+5; assay: as above
Method: as §2, §3

[5] = target: T3, EGF6+MEMBRANE PROXIMAL PEPTIDE; assay: as above
Method: as §2, §3

[6] = target: T4, EGF3+4; assay: as above
Method: as §2, §3

[7] = target: T5, EGF2+3; assay: as above
Method: as §2, §3

[8] = target: T6, Human DLL3-His; assay: SPR (ProteOn XPR36), bispecific captured on protein A/G, hu DLL3 as analyte, Example 4B
Method: as §1
For binding kinetic determination to DLL3, anti-DLL3/CD3 molecules were captured individually on the protein A/G surface vertically for 200 sec at a flowrate of 30 μl/min. The baseline was stabilized by injecting PBS-T-EDTA for 60 sec at a flowrate of 30 μl/min horizontally. The analyte (hu DLL3) was injected horizontally over the captured antibody for 300 sec at a flowrate of 30 μl/min and a dissociation for 1800 sec.

[9] = target: T7, EGF1+2; assay: flow cytometry on HEK293 cells expressing the DLL3 subdomain construct, PE anti-human secondary, control: secondary antibody only
Method: as §2, §3

T9 sequence (P01070 25-205): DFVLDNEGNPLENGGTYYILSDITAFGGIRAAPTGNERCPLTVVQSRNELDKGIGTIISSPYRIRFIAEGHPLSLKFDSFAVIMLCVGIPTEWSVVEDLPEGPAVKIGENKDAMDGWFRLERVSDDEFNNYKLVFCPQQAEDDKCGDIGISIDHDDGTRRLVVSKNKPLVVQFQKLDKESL
T8 sequence (chain, as listed by the source limits assumed): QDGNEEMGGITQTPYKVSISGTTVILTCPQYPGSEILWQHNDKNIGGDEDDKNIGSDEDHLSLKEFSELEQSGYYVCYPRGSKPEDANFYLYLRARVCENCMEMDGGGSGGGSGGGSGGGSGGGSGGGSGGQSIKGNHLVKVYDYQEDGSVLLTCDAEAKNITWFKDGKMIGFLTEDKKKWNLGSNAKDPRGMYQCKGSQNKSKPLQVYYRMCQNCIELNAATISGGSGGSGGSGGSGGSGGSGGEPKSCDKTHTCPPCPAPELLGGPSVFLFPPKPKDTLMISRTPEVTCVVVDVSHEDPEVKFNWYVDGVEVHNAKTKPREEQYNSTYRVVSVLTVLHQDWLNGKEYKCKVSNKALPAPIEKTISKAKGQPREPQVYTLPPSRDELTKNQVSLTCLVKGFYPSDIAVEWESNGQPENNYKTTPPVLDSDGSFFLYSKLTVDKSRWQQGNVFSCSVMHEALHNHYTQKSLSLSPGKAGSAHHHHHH

Binder	Kd [1] [nM]	Non-specific binding (RU) [2] [RU]	binding result [3]	binding result [4]	binding result [5]	binding result [6]	binding result [7]	Kd [8] [nM]	binding result [9]
B1	2	13	no binding (tested: 1.6 nM)	no binding (tested: 1.6 nM)	no binding (tested: 1.6 nM)	no binding (tested: 1.6 nM)	no binding (tested: 1.6 nM)	–	–
B2	3	6	no binding (tested: 1.6 nM)	no binding (tested: 1.6 nM)	no binding (tested: 1.6 nM)	no binding (tested: 1.6 nM)	no binding (tested: 1.6 nM)	0.06	no binding (tested: 1.6 nM)
